Laboratory results: US20140087995A1 (published 2014)
Numbered stars: 1 amine (or outer) side, 2 acyl side, 3 side chain; on linkers, the order of the positions; unused ones are H or OH. Bridge positions count the residues as written; N and C are the ends. Side chains are listed from the residue outwards. Ends that are not written are not given here. * marks the point of attachment. C20 diacid = O=C(O)CCCCCCCCCCCCCCCCCCC(=O)*; γGlu = O=C(O)[C@H](CCC(=O)[*:2])N[*:1]; AEEA = NCCOCCOCC(=O)O

T1: rat calcitonin receptor (rat, UniProt P32214 25-516)
T1 construct: whole, on cells; Used as membranes prepared from the transfected cells; also called rCTR; rat calcitonin (a) receptor
T1 sequence (looked up): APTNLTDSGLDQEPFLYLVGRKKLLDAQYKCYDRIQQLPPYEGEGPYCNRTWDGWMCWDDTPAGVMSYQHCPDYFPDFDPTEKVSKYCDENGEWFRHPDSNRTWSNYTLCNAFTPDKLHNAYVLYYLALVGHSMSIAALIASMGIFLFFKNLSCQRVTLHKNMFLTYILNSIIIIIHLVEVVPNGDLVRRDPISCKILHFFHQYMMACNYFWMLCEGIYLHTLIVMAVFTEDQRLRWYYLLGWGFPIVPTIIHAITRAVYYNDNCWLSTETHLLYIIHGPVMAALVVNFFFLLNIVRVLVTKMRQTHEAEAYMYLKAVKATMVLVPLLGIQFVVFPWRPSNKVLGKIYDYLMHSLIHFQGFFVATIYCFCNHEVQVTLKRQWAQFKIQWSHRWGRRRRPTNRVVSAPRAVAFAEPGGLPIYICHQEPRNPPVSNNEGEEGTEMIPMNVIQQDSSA

T2: rat amylin receptor (rat calcitonin receptor + rat RAMP 3) (rat, UniProt P32214 25-516; Q9JJ73 23-147)
T2 construct: whole, on cells; Used as membranes prepared from the transfected cells; also called rAmylin-R; rat amylin 3(a) receptor
T2 sequence (looked up) 1: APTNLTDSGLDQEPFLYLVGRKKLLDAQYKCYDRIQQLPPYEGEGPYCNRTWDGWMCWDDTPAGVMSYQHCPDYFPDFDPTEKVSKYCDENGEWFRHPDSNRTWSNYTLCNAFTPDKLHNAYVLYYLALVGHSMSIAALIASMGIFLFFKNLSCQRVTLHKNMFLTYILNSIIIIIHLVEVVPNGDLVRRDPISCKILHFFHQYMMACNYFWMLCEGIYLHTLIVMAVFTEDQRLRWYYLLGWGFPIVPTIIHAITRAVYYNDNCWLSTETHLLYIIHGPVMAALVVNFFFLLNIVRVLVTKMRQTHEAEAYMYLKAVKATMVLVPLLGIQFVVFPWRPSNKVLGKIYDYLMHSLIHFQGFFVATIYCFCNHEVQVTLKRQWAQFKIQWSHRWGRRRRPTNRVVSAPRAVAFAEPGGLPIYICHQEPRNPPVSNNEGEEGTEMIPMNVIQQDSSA
T2 sequence (looked up) 2: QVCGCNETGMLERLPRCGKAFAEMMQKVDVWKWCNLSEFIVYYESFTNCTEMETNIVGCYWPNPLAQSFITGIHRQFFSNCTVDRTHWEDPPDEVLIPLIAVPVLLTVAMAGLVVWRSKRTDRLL

T3: rat calcitonin receptor (rat, UniProt P32214 25-516)
T3 construct: whole, on cells; Membranes prepared from transiently transfected BHK tk'ts 13 cells; also called rCTR; rat calcitonin (a) receptor
T3 sequence (looked up): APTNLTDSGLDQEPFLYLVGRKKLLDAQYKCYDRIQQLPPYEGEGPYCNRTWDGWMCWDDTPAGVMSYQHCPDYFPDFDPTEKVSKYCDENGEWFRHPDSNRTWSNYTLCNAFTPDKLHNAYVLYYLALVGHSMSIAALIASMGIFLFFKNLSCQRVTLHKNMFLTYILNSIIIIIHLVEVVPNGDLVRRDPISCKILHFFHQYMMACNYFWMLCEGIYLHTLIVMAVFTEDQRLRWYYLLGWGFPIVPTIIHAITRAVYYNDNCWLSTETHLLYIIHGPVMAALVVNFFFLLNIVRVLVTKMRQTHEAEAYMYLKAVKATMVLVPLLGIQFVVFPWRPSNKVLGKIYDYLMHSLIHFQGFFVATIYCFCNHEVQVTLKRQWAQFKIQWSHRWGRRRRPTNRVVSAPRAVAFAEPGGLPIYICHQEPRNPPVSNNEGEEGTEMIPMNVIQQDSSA

T4: human calcitonin receptor (human, UniProt P30988 25-474)
T4 construct: whole, on cells; Membranes from stably transfected BHK cells; also called hCTR; hCT
T4 sequence (looked up): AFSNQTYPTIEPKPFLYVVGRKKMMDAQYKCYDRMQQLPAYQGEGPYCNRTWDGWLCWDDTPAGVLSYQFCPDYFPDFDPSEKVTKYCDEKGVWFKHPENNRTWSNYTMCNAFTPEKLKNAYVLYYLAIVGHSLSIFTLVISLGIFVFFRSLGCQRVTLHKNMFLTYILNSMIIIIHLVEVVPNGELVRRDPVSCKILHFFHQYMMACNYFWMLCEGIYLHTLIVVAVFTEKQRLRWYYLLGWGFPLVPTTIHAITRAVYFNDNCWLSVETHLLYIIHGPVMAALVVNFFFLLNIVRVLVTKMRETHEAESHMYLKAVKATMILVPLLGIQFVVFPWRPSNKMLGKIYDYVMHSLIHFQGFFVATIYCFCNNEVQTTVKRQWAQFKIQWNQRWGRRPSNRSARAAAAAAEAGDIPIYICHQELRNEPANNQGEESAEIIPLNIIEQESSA

T5: rat amylin receptor (rat calcitonin receptor + rat RAMP 3) (rat, UniProt P32214 25-516; Q9JJ73 23-147)
T5 construct: whole, on cells; Membranes prepared from transiently transfected BHK tk'ts 13 cells; also called rAmylin-R; rat amylin 3(a) receptor
T5 sequence (looked up) 1: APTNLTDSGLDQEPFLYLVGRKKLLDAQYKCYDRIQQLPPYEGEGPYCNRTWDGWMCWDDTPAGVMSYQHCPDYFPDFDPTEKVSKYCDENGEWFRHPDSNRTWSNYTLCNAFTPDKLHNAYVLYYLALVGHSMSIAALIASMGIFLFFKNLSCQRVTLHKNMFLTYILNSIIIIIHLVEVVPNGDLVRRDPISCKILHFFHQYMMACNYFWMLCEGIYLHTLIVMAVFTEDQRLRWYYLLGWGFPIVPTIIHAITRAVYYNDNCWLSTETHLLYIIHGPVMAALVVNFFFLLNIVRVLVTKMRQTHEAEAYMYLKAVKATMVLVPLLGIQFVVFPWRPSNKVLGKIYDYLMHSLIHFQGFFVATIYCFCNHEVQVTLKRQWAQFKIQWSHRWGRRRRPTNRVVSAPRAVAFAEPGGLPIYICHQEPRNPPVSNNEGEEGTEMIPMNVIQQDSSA
T5 sequence (looked up) 2: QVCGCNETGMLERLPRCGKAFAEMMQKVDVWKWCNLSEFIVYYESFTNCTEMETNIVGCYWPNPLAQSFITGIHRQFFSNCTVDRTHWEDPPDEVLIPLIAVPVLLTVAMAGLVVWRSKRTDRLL


How the values were obtained:
rat calcitonin receptor [1] = biological target: T1, rat calcitonin receptor; experiment: SPA competition with 125I-calcitonin, membranes of BHK cells with rat calcitonin receptor (Assay VIII)
[2] = biological target: T2, rat amylin receptor (rat calcitonin …); experiment: SPA competition with 125I-rat amylin, membranes of BHK cells with rat calcitonin receptor + rat RAMP3 (Assay VI)
rat calcitonin receptor [3] = biological target: T3, rat calcitonin receptor; experiment: SPA competition vs 125I-calcitonin, membranes (Assay VIII)
rat calcitonin receptor [4] = biological target: T3, rat calcitonin receptor; experiment: ratio of IC50 on rat calcitonin receptor to IC50 on rat amylin receptor
[5] = biological target: T4, human calcitonin receptor; experiment: ratio of IC50 on human calcitonin receptor to IC50 on human amylin receptor
Protocol: The resulting pellet was resuspended, homogenized and centrifuged (20.000 rpm, 15 min) in a buffer containing 20 mM Na-HEPES and 0.1 mM EDTA (pH 7.4, buffer 2). The resulting pellet was resuspended in buffer 2 and protein concentration was measured (BCA protein Assay, Pierce). The homogenate was kept cold during the whole procedure. The membranes were kept at −80° C. until use. The assay was performed in a 384 well Optiplate (PerkinElmer) in a total volume of 40 ul. Membranes were mixed with SPA beads. Final concentration of membranes 35 ng/μL final and SPA beads was 0.05 mg/well. Test-compounds were dissolved in DMSO and further diluted in assay buffer (50 mM Hepes, pH 7.4, 1 mM CaCl2, 5 mM MgCl₂, 0.1% OA and 0.02% Tween20). […] The final mixture was incubated with shaking at 400 rpm for 120 min at 25° C. prior to centrifugation (1500 rpm, 10 min). Samples were analyzed on TopCounter™ (Packard). The IC₅₀ was calculated using (one site binding competition analysis) GraphPad Prism5 as a measure of receptor affinity.
Membranes were prepared in the following way; the cells were rinsed with PBS and incubated with Versene for approximately 5 min before harvesting. The cells were flushed with PBS and the cell-suspension was centrifuged for 5 min at 1000 rpm. Cells were homogenized (Ultrathurrax) in a buffer containing 20 mM Na-HEPES and 10 mM EDTA (pH 7.4) and centrifuged at 20.000 rpm for 15 min. The resulting pellet was resuspended, homogenized and centrifuged (20.000 rpm, 15 min) in a buffer containing 20 mM Na-HEPES and 0.1 mM EDTA (pH 7.4, buffer 2). The resulting pellet was resuspended in buffer 2 and protein concentration was measured (BCA protein Assay, Pierce). The homogenate was kept cold during the whole procedure. The membranes were kept at −80° C. until use. Assay was performed in a 384 well Optiplate (PerkinElmer) in a total volume of 40 ul. Membranes were mixed with SPA beads.

[6] = biological target: T5, rat amylin receptor (rat calcitonin …); experiment: SPA competition vs 125I-rat amylin, membranes (Assay VI)

Binder	IC50 (rat calcitonin receptor [1])	IC50 [2]	IC50 (rat calcitonin receptor [3])	Ratio rCT/rAmylin binding (rat calcitonin receptor [4])	Ratio hCT/hAmylin binding [5]	IC50 [6]
K([AEEA-γGlu-C20 diacid])CNTATCATQRLANFLRHSSPNFGAIPSSTNVGSRTY-NH2 (disulfide 2-7; N-terminus assumed; SMILES CC[C@H](C)[C@H](NC(=O)[C@H](C)NC(=O)CNC(=O)[C@H](Cc1ccccc1)NC(=O)[C@H](CC(N)=O)NC(=O)[C@@H]1CCCN1C(=O)[C@H](CO)NC(=O)[C@H](CO)NC(=O)[C@H](Cc1c[nH]cn1)NC(=O)[C@H](CCCNC(=N)N)NC(=O)[C@H](CC(C)C)NC(=O)[C@H](Cc1ccccc1)NC(=O)[C@H](CC(N)=O)NC(=O)[C@H](C)NC(=O)[C@H](CC(C)C)NC(=O)[C@H](CCCNC(=N)N)NC(=O)[C@H](CCC(N)=O)NC(=O)[C@@H](NC(=O)[C@H](C)NC(=O)[C@@H]1CSSC[C@H](NC(=O)[C@@H](N)CCCCNC(=O)COCCOCCNC(=O)CC[C@H](NC(=O)CCCCCCCCCCCCCCCCCCC(=O)O)C(=O)O)C(=O)N[C@@H](CC(N)=O)C(=O)N[C@@H]([C@@H](C)O)C(=O)N[C@@H](C)C(=O)N[C@@H]([C@@H](C)O)C(=O)N1)[C@@H](C)O)C(=O)N1CCC[C@H]1C(=O)N[C@@H](CO)C(=O)N[C@@H](CO)C(=O)N[C@H](C(=O)N[C@@H](CC(N)=O)C(=O)N[C@H](C(=O)NCC(=O)N[C@@H](CO)C(=O)N[C@@H](CCCNC(=N)N)C(=O)N[C@H](C(=O)N[C@@H](Cc1ccc(O)cc1)C(N)=O)[C@@H](C)O)C(C)C)[C@@H](C)O, Derivative of human amylin; also called compound 38)	38 nM	0.383 nM	–	–	–	–
K([γGlu-γGlu-C20 diacid])CNTATCATQRLAEFLRHSSPNFGAIPSSTNVGPETY-NH2 (disulfide 2-7 (inferred))	–	–	16.1 nM	88.5	17.6	0.182 nM
K([AEEA-AEEA-γGlu-C20 diacid])CNTATCATQRLANFLRHSSPNFGAIPSSTNVGRNTY-NH2 (disulfide 2-7; N-terminus assumed; SMILES CC[C@H](C)[C@H](NC(=O)[C@H](C)NC(=O)CNC(=O)[C@H](Cc1ccccc1)NC(=O)[C@H](CC(N)=O)NC(=O)[C@@H]1CCCN1C(=O)[C@H](CO)NC(=O)[C@H](CO)NC(=O)[C@H](Cc1c[nH]cn1)NC(=O)[C@H](CCCNC(=N)N)NC(=O)[C@H](CC(C)C)NC(=O)[C@H](Cc1ccccc1)NC(=O)[C@H](CC(N)=O)NC(=O)[C@H](C)NC(=O)[C@H](CC(C)C)NC(=O)[C@H](CCCNC(=N)N)NC(=O)[C@H](CCC(N)=O)NC(=O)[C@@H](NC(=O)[C@H](C)NC(=O)[C@@H]1CSSC[C@H](NC(=O)[C@@H](N)CCCCNC(=O)COCCOCCNC(=O)COCCOCCNC(=O)CC[C@H](NC(=O)CCCCCCCCCCCCCCCCCCC(=O)O)C(=O)O)C(=O)N[C@@H](CC(N)=O)C(=O)N[C@@H]([C@@H](C)O)C(=O)N[C@@H](C)C(=O)N[C@@H]([C@@H](C)O)C(=O)N1)[C@@H](C)O)C(=O)N1CCC[C@H]1C(=O)N[C@@H](CO)C(=O)N[C@@H](CO)C(=O)N[C@H](C(=O)N[C@@H](CC(N)=O)C(=O)N[C@H](C(=O)NCC(=O)N[C@@H](CCCNC(=N)N)C(=O)N[C@@H](CC(N)=O)C(=O)N[C@H](C(=O)N[C@@H](Cc1ccc(O)cc1)C(N)=O)[C@@H](C)O)C(C)C)[C@@H](C)O, also called compound 95)	–	–	388 nM	71.3	63.4	5.45 nM
K([AEEA-AEEA-γGlu-C20 diacid])CNTATCATQRLANFLRHSSPNFGAIPSSTNVGHNTY-NH2 (disulfide 2-7; N-terminus assumed; SMILES CC[C@H](C)[C@H](NC(=O)[C@H](C)NC(=O)CNC(=O)[C@H](Cc1ccccc1)NC(=O)[C@H](CC(N)=O)NC(=O)[C@@H]1CCCN1C(=O)[C@H](CO)NC(=O)[C@H](CO)NC(=O)[C@H](Cc1c[nH]cn1)NC(=O)[C@H](CCCNC(=N)N)NC(=O)[C@H](CC(C)C)NC(=O)[C@H](Cc1ccccc1)NC(=O)[C@H](CC(N)=O)NC(=O)[C@H](C)NC(=O)[C@H](CC(C)C)NC(=O)[C@H](CCCNC(=N)N)NC(=O)[C@H](CCC(N)=O)NC(=O)[C@@H](NC(=O)[C@H](C)NC(=O)[C@@H]1CSSC[C@H](NC(=O)[C@@H](N)CCCCNC(=O)COCCOCCNC(=O)COCCOCCNC(=O)CC[C@H](NC(=O)CCCCCCCCCCCCCCCCCCC(=O)O)C(=O)O)C(=O)N[C@@H](CC(N)=O)C(=O)N[C@@H]([C@@H](C)O)C(=O)N[C@@H](C)C(=O)N[C@@H]([C@@H](C)O)C(=O)N1)[C@@H](C)O)C(=O)N1CCC[C@H]1C(=O)N[C@@H](CO)C(=O)N[C@@H](CO)C(=O)N[C@H](C(=O)N[C@@H](CC(N)=O)C(=O)N[C@H](C(=O)NCC(=O)N[C@@H](Cc1c[nH]cn1)C(=O)N[C@@H](CC(N)=O)C(=O)N[C@H](C(=O)N[C@@H](Cc1ccc(O)cc1)C(N)=O)[C@@H](C)O)C(C)C)[C@@H](C)O, also called compound 97)	–	–	159 nM	71.1	104	2.24 nM
